In patent publication US20190202925A1 (OPI VI IP HOLDCO, published 2019):
Changes are numbered by the printed parent chain. Where two headings read alike, the source gives them in different places. One block for each binder: values may come before it.

Experiments:
soluble human TNFR2 [1] = target: T1, soluble human TNFR2 (human, UniProt P20333 23-257); experiment: competition ELISA: plate-bound soluble TNFR2, antibody titrated against constant biotinylated TNFα, streptavidin-HRP, A450
T1 construct: also called soluble TNFR2
T1 sequence (looked up): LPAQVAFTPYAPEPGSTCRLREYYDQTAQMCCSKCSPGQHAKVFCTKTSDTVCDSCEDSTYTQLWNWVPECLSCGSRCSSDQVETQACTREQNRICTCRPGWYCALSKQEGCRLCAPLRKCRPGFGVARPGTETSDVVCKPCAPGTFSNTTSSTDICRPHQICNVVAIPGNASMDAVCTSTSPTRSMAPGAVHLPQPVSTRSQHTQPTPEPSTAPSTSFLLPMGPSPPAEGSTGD
Description: (§1) Soluble human TNFR2 was coated on Nunc-Immuno™ plates. […] IC₅₀ values are reported in nM.
(§2) IC₅₀ values are reported in nM.

[2] = target: T2, monomeric cynomolgus TNFR2 extracellular domain (cynomolgus monkey, UniProt A0A2K5VET2 132-366); experiment: BLI (Octet Red 96), antibody captured on Fc biosensor, monomeric TNFR2 ECD in solution, 1:1 model
T2 construct: extracellular domain; Analyte in the Octet experiments; also called cynomolgus TNFR2 ECD; Cyno TNFR2
T2 sequence: T1 sequence (looked up) with S16G, S36P, P117Q, N164H, E210A, S216G, M223V
Procedure: (§3) Analysis of binding to the human and cynomolgus TNFR2 ECD was performed using an Octet Red 96 Instrument™ (ForteBio). […] The experiments were performed using five steps: (1) baseline acquisition (60 s); (2) antibody loading on to anti-human or anti-mouse Fc biosensors (120 s); (3) second baseline acquisition (60 s); (4) association of interacting monomeric human or cynomolgus TNFR2 ECD protein for kₒₙ measurement (120 s); and (5) dissociation of interacting monomeric human or cynomolgus TNFR2 ECD for koff measurement (240-3600 s).
(§4) The interacting monomeric human or cynomolgus ECD was used at 5-6 concentrations of a 3-fold concentration series. The data were analyzed using Octet Data Analysis Software 9.0™ (ForteBio) and fit to the 1:1 binding model. The equilibrium dissociation constants (Kd) were calculated by the ratio of […].

[3] = target: T3, monomeric human TNFR2 extracellular domain (human, UniProt P20333 23-257); experiment: as above
T3 construct: extracellular domain; Analyte in the Octet experiments; also called human TNFR2 ECD
T3 sequence (looked up): T1 sequence (looked up)
Procedure: as §3, §4

human TNFR2 on cells [4] = target: T4, human TNFR2 on cells (human, UniProt P20333 23-461); experiment: cell-based or functional assay
T4 sequence (looked up): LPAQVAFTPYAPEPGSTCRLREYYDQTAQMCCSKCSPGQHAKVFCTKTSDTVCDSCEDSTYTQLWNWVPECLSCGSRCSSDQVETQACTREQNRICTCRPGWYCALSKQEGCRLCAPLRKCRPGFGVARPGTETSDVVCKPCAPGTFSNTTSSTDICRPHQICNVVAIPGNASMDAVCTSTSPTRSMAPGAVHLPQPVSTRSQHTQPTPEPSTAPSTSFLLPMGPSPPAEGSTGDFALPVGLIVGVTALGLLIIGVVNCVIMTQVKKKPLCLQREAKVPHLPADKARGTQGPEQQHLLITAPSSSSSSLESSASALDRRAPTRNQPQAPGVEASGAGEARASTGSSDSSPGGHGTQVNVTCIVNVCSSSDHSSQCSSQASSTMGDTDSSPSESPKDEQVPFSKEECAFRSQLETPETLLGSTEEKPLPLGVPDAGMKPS

soluble human TNFR2 [5] = target: T1, soluble human TNFR2; experiment: competition ELISA (FIG. 2), plate-bound soluble human TNFR2, constant biotinylated TNFα as competitor
Description: as §1

[6] = target: T3, monomeric human TNFR2 extracellular …; experiment: BLI (Octet Red 96), Human TNFR2 Kd (1-1)
soluble human TNFR2 [7] = target: T1, soluble human TNFR2; experiment: competition ELISA, plate-bound soluble human TNFR2, biotinylated TNFα as competitor
Procedure: (§5) Soluble human TNFR2 (Sino Biological, 10417-H08H) or cynomolgus TNFR2 (Sino Biological, 90102-C08H) was coated on Nunc-Immuno™ plates at 0.1 μg/ml, 0.5 ug/ml, 1 μg/ml, and 5 μg/ml. […] Plates were developed using TMB and stopped with 3 M HCl.
as §2

soluble human TNFR2 [8] = target: T1, soluble human TNFR2; experiment: competition ELISA: plate-bound soluble human TNFR2, competitor biotinylated TNFα, streptavidin-HRP, A450
Procedure: as §5

soluble cynomolgus TNFR2 [9] = target: T5, soluble cynomolgus TNFR2 (cynomolgus, UniProt A0A2K5VET2 132-366); experiment: competition ELISA: plate-bound soluble cynomolgus TNFR2, competitor biotinylated TNFα, streptavidin-HRP, A450
T5 sequence: T1 sequence (looked up) with S16G, S36P, P117Q, N164H, E210A, S216G, M223V
Procedure: as §5

soluble cynomolgus TNFR2 [10] = target: T5, soluble cynomolgus TNFR2; experiment: competition ELISA: plate-bound soluble cynomolgus TNFR2, competitor biotinylated TNFα; IC50 relative to unlabelled TNFα = 1.00
Procedure: as §5, §2

[11] = target: T6, cynomolgus TNFR2 on cells (cynomolgus); experiment: flow cytometry on cynomolgus PBMC, antibody at 10 ug/mL, anti-human Fc-PE secondary
T6 construct: whole, on cells; also called cynomolgus TNFR2 on CD4+ and CD8+ T cells
Procedure: Cynomolgus peripheral blood mononuclear cells (PBMCs) from two independent donors were isolated by diluting whole blood (SNBL USA) 1:1 in PBS (Lonza), layering over Ficoll-Paque Plus (GE Healthcare), and centrifuging for 35 minutes at 400×g. The PBMC fraction was removed, washed 3 times in 2% FBS PBS and counted. 0.3×10⁶ PBMC were resuspended in Fixable Viability Stain 575V (BD) diluted 1:1000 in PBS and incubated for 10 minutes. PBMC were then washed twice in PBS to remove residual viability stain, resuspended in Horizon Brilliant Stain Buffer (BD) with 10 uL per test of human Fc receptor binding inhibitor (eBioscience), and incubated on ice for 20 minutes to block Fc receptors. […] PBMC were incubated 20 minutes on ice and then washed three times with 2% FBS PBS. To visualize TNFR2 chimeric antibody binding, PBMC were resuspended in goat anti-human Fc-PE F(ab′)₂ secondary reagent (Jackson ImmunoResearch) diluted 1:200 in 2% FBS PBS and incubated on ice for 20 minutes. Cells were then washed three times in 2% FBS PBS and resuspended in 200 uL 2% FBS PBS for flow cytometry analysis using a BD FACS Celesta instrument and FACS Diva software. T cells were analyzed for chimeric TNFR2 binding by gating on viable cells defined as lymphocytes using forward and side scatter and as T cells by anti-CD3 staining. CD4⁺ and CD8⁺ subsets were identified using commercial specific antibody conjugates.

soluble cynomolgus TNFR2 [12] = target: T5, soluble cynomolgus TNFR2; experiment: competition ELISA, plate-bound soluble cynomolgus TNFR2, biotinylated TNFα as competitor
Procedure: as §5, §2

human TNFR2 on cells [13] = target: T4, human TNFR2 on cells; experiment: flow cytometry on human PBMC, antibody at 10 ug/mL, anti-human Fc-PE secondary
Procedure: The following day 0.3×10⁶ PBMC were counted and washed with PBS (Lonza). PBMCs were resuspended in Fixable Viability Stain 575V (BD) diluted 1:1,000 in PBS and incubated for 10 minutes. PBMCs were then washed twice in PBS to remove residual viability stain. PBMCs were then resuspended in Horizon Brilliant Stain Buffer (BD) with 10 uL per test of human Fc receptor binding inhibitor (eBioscience) and incubated on ice for 20 minutes to block Fc receptors. […] PBMCs were incubated 20 minutes on ice and then washed three times with 2% FBS PBS. To visualize TNFR chimeric antibody binding, PBMCs were resuspended in goat anti-human Fc-PE F(ab′)₂ secondary reagent (Jackson ImmunoResearch) diluted 1:200 in 2% FBS PBS and incubated on ice for 20 minutes. Cells were then washed three times in 2% FBS PBS and resuspended in 200 uL 2% FBS PBS for flow cytometry analysis using a BD FACS Celesta instrument and FACS Diva software. T cells were analyzed for chimeric TNFR2 binding by gating on viable cells defined as lymphocytes using forward and side scatter and as T cells by anti-CD3 staining. CD4⁺ and CD8⁺ subsets were identified by commercially available specific antibody conjugates.

soluble human TNFR2 [14] = target: T1, soluble human TNFR2; experiment: competition ELISA: plate-bound soluble human TNFR2, competitor biotinylated TNFα; IC50 relative to unlabelled TNFα = 1.00
Procedure: as §5, §2

soluble human TNFR2 [15] = target: T1, soluble human TNFR2; experiment: competition ELISA (FIG. 1), plate-bound soluble human TNFR2, constant biotinylated TNFα as competitor
Description: as §1

soluble cynomolgus TNFR2 [16] = target: T5, soluble cynomolgus TNFR2; experiment: competition ELISA: plate-bound soluble cynomolgus TNFR2, competitor biotinylated TNFα, streptavidin-HRP, A450; remark: listed apart in the source
Procedure: as §5

soluble cynomolgus TNFR2 [17] = target: T5, soluble cynomolgus TNFR2; experiment: competition ELISA: plate-bound soluble cynomolgus TNFR2, competitor biotinylated TNFα; IC50 relative to unlabelled TNFα = 1.00; remark: listed apart in the source
Procedure: as §5

soluble human TNFR2 [18] = target: T1, soluble human TNFR2; experiment: competition ELISA: plate-bound soluble human TNFR2, competitor biotinylated TNFα, streptavidin-HRP, A450; remark: listed apart in the source
Procedure: as §5

soluble human TNFR2 [19] = target: T1, soluble human TNFR2; experiment: competition ELISA: plate-bound soluble human TNFR2, competitor biotinylated TNFα; IC50 relative to unlabelled TNFα = 1.00; remark: listed apart in the source
Procedure: as §5

B1: SBT-001 (antibody, V domains shown)
VH: EVQLQQSGAELVKPGASVKISCKASGYTFTDYNMDWVKQSHGKSLEWIGDINPNYESTSYNQKFKGKATLTVDKSSSTAYMEVRSLTSEDTAVFYCARDKGWYFDVWGAGTTVTVSS
VL: ENVLTQSPAIMSASLGEKVTMSCRASSSVKNMYWYQQKSDASPKLWIYYTSNLAPGVPARFSGSGSGNSYSLTISSMEGEDAATYYCQQFTSSPYTFGGGTKLELK
notes: Parental mouse antibody; also called mouse SBT-001
IC50 (soluble human TNFR2 [1]): 8.27 nM
Kd [2]: 53.1 nM
Kd [3]: 2.7 nM
IC50 (µg/mL) (with pre-incubation); rescue of Jurkat H6 cells from 2 ng/mL TNFα, luminescence (human TNFR2 on cells [4]): 3.03 µg/mL
IC50 (µg/mL) (without pre-incubation); rescue of Jurkat H6 cells from 2 ng/mL TNFα, luminescence (human TNFR2 on cells [4]): 2.53 µg/mL
IC50 (soluble human TNFR2 [5]): 9.04 nM

B3: chimeric SBT-004b (antibody, human IgG1, V domains shown)
VH: EVQLQQSGPEVGRPGSSVKISCKASGYTFTDYIMHWVKQSPGQGLEWIGWVDPEYGSTDYAEKFKKKATLTADTSSNTAYIQLSSLTSEDTATYFCARDDGSYSPFDYWGQGVMVTVSS
VL: NIVMTQSPKSMSMSVGERVTLTCKASENVVTYVSWYQQKPEQSPKLLIYGASNRYTGVPDRFTGSGSATDFTLTISSVQAEDLADYHCGQGYSYPYTFGGGTKLEIK
notes: Same heavy chain as chSBT-004 (human IgG1 Fc domain); also called chSBT-004b
Average Relative IC50 (soluble human TNFR2 [7]): 2.93 nM
Kd [2]: 7.9 nM
Kd [3]: 2.8 nM
IC50 (soluble human TNFR2 [8]): 12.9 nM
IC50 (soluble cynomolgus TNFR2 [9]): 15.1 nM
Relative IC50 (soluble cynomolgus TNFR2 [10]): 1.57 nM
% CD4^+ ab^+ Donor 1 [11]: 8%
% CD4^+ ab^+ Donor 2 [11]: 5.5%
% CD8^+ ab^+ Donor 1 [11]: 9.2%
% CD8^+ ab^+ Donor 2 [11]: 11%
Average Relative IC50 (soluble cynomolgus TNFR2 [12]): 1.56
% CD4^+ ab^+ Donor 1 (human TNFR2 on cells [13]): 29.3%
% CD4^+ ab^+ Donor 2 (human TNFR2 on cells [13]): 18.4%
% CD8^+ ab^+ Donor 1 (human TNFR2 on cells [13]): 9.1%
% CD8^+ ab^+ Donor 2 (human TNFR2 on cells [13]): 11.4%
Relative IC50 (soluble human TNFR2 [14]): 2.33 nM

The next binders have a lower Kd [3] than those just listed; values first:

IC50 (soluble human TNFR2 [1]): 8.5 nM
Kd [3]: 1.2 nM
Kd [6]: 1.2 nM
IC50 (soluble human TNFR2 [5]): 10.5 nM
B2: SBT-003 (antibody, V domains shown)
VH: QIQLVQSGPELKKPGETVKISCKASGYTFTDYSMHWVKQAPGKGLKWMGWINTETGEPTYADDFKGRFAFSSETSTSTAYLQINNLKNDDTTTYFCATYYGSSYVPDYWGQGTSLTVSS
VL: DIVMTQSHKFMSTSVGDRVSITCKASQNVGTAVAWYQHKPGQSPKLLIYWTSSRHTGVPDRFTGSGSGTEFTLTISNVQSEDLADYFCHQYSDYPYTFGGGTKLEIK
notes: Parental mouse antibody; also called mouse SBT-003

Average Relative IC50 (soluble human TNFR2 [7]): 2.19 nM
Kd [2]: 0.44 nM
Kd [3]: 1.3 nM
IC50 (soluble human TNFR2 [8]): 12.1 nM
Kd [6]: 1.3 nM
IC50 (soluble human TNFR2 [15]): 5.12 nM
IC50 (soluble cynomolgus TNFR2 [9]): 19.6 nM
IC50 (soluble cynomolgus TNFR2 [16]): 8 nM
Relative IC50 (soluble cynomolgus TNFR2 [10]): 2.04 nM
Relative IC50 (soluble cynomolgus TNFR2 [17]): 2.13 nM
IC50 (soluble human TNFR2 [18]): 5.77 nM
Relative IC50 (soluble human TNFR2 [19]): 2.33 nM
Average Relative IC50 (soluble cynomolgus TNFR2 [12]): 1.98
IC50 (soluble human TNFR2 [5]): 5.08 nM
Relative IC50 (soluble human TNFR2 [14]): 2.17 nM
B4: SBT-002 (antibody, V domains shown)
VH: QVTLKESGPGILQPSQTLSLTCSFSGFSLSTSGMGVGWIRQPSGKGLEWLAHIWWDDDKFYNPSLKSQLTISKDTSRNQVFLKLTSVVTADTATYYCARLTGTRYFDYWGQGTTLTVSS
VL: DVQMTQSPSSLSASLGGKVTITCKASQDINKFIAWYQHKPGKGPRLLIHYTSTLQPGIPSKFSGSGSGRDYSFSISNLEPEDIATYYCLQYGNLWTFGGGTKLEIT
notes: Parental mouse antibody; also called mouse SBT-002
